In patent US20220056139A1 (UNIVERSITY OF SOUTHERN CALIFORNIA, published 2022):

Molecular target: HLA-DR (human)
Assay: cell-based or functional assay

B1: huLym-1-B-BB3z CAR (receptor)
chain: EVQLVESGGGLVQPGRSLRLTCTASGFSLTSYGVHWVRQPPGKGLEWLAVIWSDGSTTYNSALKSRLTISKDNSKSQVYLQMNSLRAEDTAVYYCARHYGSTLAFASWGQGTLVTVSSGGGGSGGGGSGGGGSDIQMTQSPSSLSASVGDRVTITCRASVNIYSYLAWYQQKPGKAPNLLIYNAKILAEGVPSRFSGSGSGTDFTLTISSLQPEDFASYYCQHHYGTFTFGQGTKVEIKAVPPQQWALSTTTPAPRPPTPAPTIASQPLSLRPEACRPAAGGAVHTRGLDFACDIYIWAPLAGTCGVLLLSLVITLYCKRGRKKLLYIFKQPFMRPVQTTQEEDGCSCRFPEEEEGGCELRVKFSRSADAPAYKQGQNQLYNELNLGRREEYDVLDKRRGRDPEMGGKPRRKNPQEGLYNELQKDKMAEAYSEIGMKGERRRGKGHDGLYQGLSTATKDTYDALHMQALPP
With B1 the “fold expansion of CAR T cells from days 7-14” value was < 4 fold.

B2: huLym-1-B-DAP CAR (Experiment 3, with 261 tag) (receptor)
chain: EVQLVESGGGLVQPGRSLRLTCTASGFSLTSYGVHWVRQPPGKGLEWLAVIWSDGSTTYNSALKSRLTISKDNSKSQVYLQMNSLRAEDTAVYYCARHYGSTLAFASWGQGTLVTVSSGGGGSGGGGSGGGGSDIQMTQSPSSLSASVGDRVTITCRASVNIYSYLAWYQQKPGKAPNLLIYNAKILAEGVPSRFSGSGSGTDFTLTISSLQPEDFASYYCQHHYGTFTFGQGTKVEIKAVPPQQWALSTTTPAPRPPTPAPTIASQPLSLRPEACRPAAGGAVHTRGLDFACDIYIWAPLAGTCGVLLLSLVITLYCLCARPRRSPAQDGKVYINMPGRGYFLGRLVPRGRGAAEAATRKQRITETESPYQELQGQRSDVYSDLNTQRPYYK
In the case of B2, the “killing of Raji cells at 2:1 effector to target ratio, overnight co-culture” value is reported as ~80%.
